Each molecule was assayed on HTLV-1 LTR promoter transactivation by HTLV-1 Tax (assay: Transactivation assay, HTLV-1 LTR luciferase reporter with HTLV-1 Tax). Conditions: HEK293 cells co-transfected with pHTLV1LTR-Luc, HTLV-1 Tax and the human ORF; relative luciferase activity 24 h post-transfection; positive if >=2 or <=0.5 and p<0.05.
Type: cell-based
Text: Twenty-four hours post-transfection, cells were washed three times with PBS, lysed and luciferase activities determined from two independent transfection experiments in triplicate. We computed a paired t-test to assess the difference of the means between samples with and without the human interactor. For a trial to be considered positive, the relative luciferase activities has to be >=2 or <=0.5, and the p-value of the t-test<0.05.
Expression vectors encoding human ORFs and HIV-1 Tat or HTLV-1 Tax proteins were tested in a transactivation reporter assay against reporter plasmids harboring HIV-1 or HTLV-1 viral promoter sequences cloned upstream of the luciferase reporter gene. […] Wherever not expressly specified, constructs used herein were generally made by sub-cloning entry clones from the ORFeome V3.1 into suitable destination vectors.

Molecule	HTLV_LTR transactiv.
KIAA1949: human host interactor protein, Gene ID 170954, expressed from transfected ORF vector (protein) MATIPDWKLQLLARRRQEEASVRGREKAERERLSQMPAWKRGLLERRRAKLGLSPGEPSPVLGTVEAGPPDPDESAVLLEAIGPVHQNRFIRQERQQQQQQQQRSEELLAERKPGPLEARERRPSPGEMRDQSPKGRESREERLSPRETRERRLGIGGAQELSLRPLEARDWRQSPGEVGDRSSRLSEAWKWRLSPGETPERSLRLAESREQSPRRKEVESRLSPGESAYQKLGLTEAHKWRPDSRESQEQSLVQLEATEWRLRSGEERQDYSEECGRKEEWPVPGVAPKETAELSETLTREAQGNSSAGVEAAEQRPVEDGERGMKPTEGWKWTLNSGKAREWTPRDIEAQTQKPEPPESAEKLLESPGVEAGEGEAEKEEAGAQGRPLRALQNCCSVPSPLPPEDAGTGGLRQQEEEAVELQPPPPAPLSPPPPAPTAPQPPGDPLMSRLFYGVKAGPGVGAPRRSGHTFTVNPRRSVPPATPATPTSPATVDAAVPGAGKKRYPTAEEILVLGGYLRLSRSCLAKGSPERHHKQLKISFSETALETTYQYPSESSVLEELGPEPEVPSAPNPPAAQPDDEEDEEELLLLQPELQGGLRTKALIVDESCRR	0.35 fold change
KIF9: human host interactor protein, Gene ID 64147, expressed from transfected ORF vector (protein) MGTRKKVHAFVRVKPTDDFAHEMIRYGDDKRSIDIHLKKDIRRGVVNNQQTDWSFKLDGVLHDASQDLVYETVAKDVVSQALDGYNGTIMCYGQTGAGKTYTMMGATENYKHRGILPRALQQVFRMIEERPTHAITVRVSYLEIYNESLFDLLSTLPYVGPSVTPMTIVENPQGVFIKGLSVHLTSQEEDAFSLLFEGETNRIIASHTMNKNSSRSHCIFTIYLEAHSRTLSEEKYITSKINLVDLAGSERLGKSGSEGQVLKEATYINKSLSFLEQAIIALGDQKRDHIPFRQCKLTHALKDSLGGNCNMVLVTNIYGEAAQLEETLSSLRFASRMKLVTTEPAINEKYDAERMVKNLEKELALLKQELAIHDSLTNRTFVTYDPMDEIQIAEINSQVRRYLEGTLDEIDIISLRQIKEVFNQFRVVLSQQEQEVESTLRRKYTLIDRNDFAAISAIQKAGLVDVDGHLVGEPEGQNFGLGVAPFSTKPGKKAKSKKTFKEPLSSLARKEGASSPVNGKDLDYVSTSKTQLVPSSKDGDVKDMLSRDRETSSIEPLPSDSPKEELRPIRPDTPPSKPVAFEEFKNEQGSEINRIFKENKSILNERRKRASETTQHINAIKREIDVTKEALNFQKSLREKQGKYENKGLMIIDEEEFLLILKLKDLKKQYRSEYQDLRDLRAEIQYCQHLVDQCRHRLLMEFDIWYNESFVIPEDMQMALKPGGSIRPGMVPVNRIVSLGEDDQDKFSQLQQRVLPEGPDSISFYNAKVKIEQKHNYLKTMMGLQQAHRK	0.37 fold change
KLC3: human host interactor protein, Gene ID 147700, expressed from transfected ORF vector (protein) MSVQVAAPGSAGLGPERLSPEELVRQTRQVVQGLEALRAEHHGLAGHLAEALAGQGPAAGLEMLEEKQQVVSHSLEAIELGLGEAQVLLALSAHVGALEAEKQRLRSQARRLAQENVWLREELEETQRRLRASEESVAQLEEEKRHLEFLGQLRQYDPPAESQQSESPPRRDSLASLFPSEEEERKGPEAAGAAAAQQGGYEIPARLRTLHNLVIQYAGQGRYEVAVPLCRQALEDLERSSGHCHPDVATMLNILALVYRDQNKYKEATDLLHDALQIREQTLGPEHPAVAATLNNLAVLYGKRGRYREAEPLCQRALEIREKVLGADHPDVAKQLNNLALLCQNQGKFEDVERHYARALSIYEALGGPHDPNVAKTKNNLASAYLKQNKYQQAEELYKEILHKEDLPAPLGAPNTGTAGDAEQALRRSSSLSKIRESIRRGSEKLVSRLRGEAAAGAAGMKRAMSLNTLNVDAPRAPGTQFPSWHLDKAPRTLSASTQDLSPH	0.31 fold change
LENG1: human host interactor protein, Gene ID 79165, expressed from transfected ORF vector (protein) MNILPKKSWHVRNKDNVARVRRDEAQAREEEKERERRVLLAQQEARTEFLRKKARHQNSLPELEAAEAGAPGSGPVDLFRELLEEGKGVIRGNKEYKEEKRQEKERQEKALGILTYLGQSAAEAQTQPPWYQLPPGRGGPPPGPAPDEKIKSRLDPLREMQKHLGKKRQHGGDEGSRSRKEKEGSEKQRPKEPPSLDQLRAERLRREAAERSRAEALLARVQGRALQEGQPEEDETDDRRRRYNSQFNPQLARRPRQQDPHLTH	0.34 fold change
MAD1L1: human host interactor protein, Gene ID 8379, expressed from transfected ORF vector (protein) MEDLGENTMVLSTLRSLNNFISQRVEGGSGLDISTSAPGSLQMQYQQSMQLEERAEQIRSKSHLIQVEREKMQMELSHKRARVELERAASTSARNYEREVDRNQELLTRIRQLQEREAGAEEKMQEQLERNRQCQQNLDAASKRLREKEDSLAQAGETINALKGRISELQWSVMDQEMRVKRLESEKQELQEQLDLQHKKCQEANQKIQELQASQEARADHEQQIKDLEQKLSLQEQDAAIVKNMKSELVRLPRLERELKQLREESAHLREMRETNGLLQEELEGLQRKLGRQEKMQETLVGLELENERLLAKLQSWERLDQTMGLSIRTPEDLSRFVVELQQRELALKDKNSAVTSSARGLEKARQQLQEELRQVSGQLLEERKKRETHEALARRLQKRVLLLTKERDGMRAILGSYDSELTPAEYSPQLTRRMREAEDMVQKVHSHSAEMEAQLSQALEELGGQKQRADMLEMELKMLKSQSSSAEQSFLFSREEADTLRLKVEELEGERSRLEEEKRMLEAQLERRALQGDYDQSRTKVLHMSLNPTSVARQRLREDHSQLQAECERLRGLLRAMERGGTVPADLEAAAASLPSSKEVAELKKQVESAELKNQRLKEVFQTKIQEFRKACYTLTGYQIDITTENQYRLTSLYAEHPGDCLIFKATSPSGSKMQLLETEFSHTVGELIEVHLRRQDSIPAFLSSLTLELFSRQTVA	0.20 fold change
MYEF2: human host interactor protein, Gene ID 50804, expressed from transfected ORF vector (protein) MADANKAEVPGATGGDSPHLQPAEPPGEPRREPHPAEAEKQQPQHSSSSNGVKMENDESAKEEKSDLKEKSTGSKKANRFHPYSKDKNSGAGEKKGPNRNRVFISNIPYDMKWQAIKDLMREKVGEVTYVELFKDAEGKSRGCGVVEFKDEEFVKKALETMNKYDLSGRPLNIKEDPDGENARRALQRTGGSFPGGHVPDMGSGLMNLPPSILNNPNIPPEVISNLQAGRLGSTIFVANLDFKVGWKKLKEVFSIAGTVKRADIKEDKDGKSRGMGTVTFEQAIEAVQAISMFNGQFLFDRPMHVKMDDKSVPHEEYRSHDGKTPQLPRGLGGIGMGLGPGGQPISASQLNIGGVMGNLGPGGMGMDGPGFGGMNRIGGGIGFGGLEAMNSMGGFGGVGRMGELYRGAMTSSMERDFGRGDIGINQGFGDSFGRLGSAMIGGFAGRIGSSNMGPVGSGISGGMGSMNSVTGGMGMGLDRMSSSFDRMGPGIGAILERSIDMDRGFLSGPMGSGMRERIGSKGNQIFVRNLPFDLTWQKLKEKFSQCGHVMFAEIKMENGKSKGCGTVRFDSPESAEKACRIMNGIKISGREIDVRLDRNA	2.53 fold change
NEFL: human host interactor protein, Gene ID 4747, expressed from transfected ORF vector (protein) MSSFSYEPYYSTSYKRRYVETPRVHISSVRSGYSTARSAYSSYSAPVSSSLSVRRSYSSSSGSLMPSLENLDLSQVAAISNDLKSIRTQEKAQLQDLNDRFASFIERVHELEQQNKVLEAELLVLRQKHSEPSRFRALYEQEIRDLRLAAEDATNEKQALQGEREGLEETLRNLQARYEEEVLSREDAEGRLMEARKGADEAALARAELEKRIDSLMDEISFLKKVHEEEIAELQAQIQYAQISVEMDVTKPDLSAALKDIRAQYEKLAAKNMQNAEEWFKSRFTVLTESAAKNTDAVRAAKDEVSESRRLLKAKTLEIEACRGMNEALEKQLQELEDKQNADISAMQDTINKLENELRTTKSEMARYLKEYQDLLNVKMALDIEIAAYRKLLEGEETRLSFTSVGSITSGYSQSSQVFGRSAYGGLQTSSYLMSTRSFPSYYTSHVQEEQIEVEETIEAAKAEEAKDEPPSEGEAEEEEKDKEEAEEEEAAEEEEAAKEESEEAKEEEEGGEGEEGEETKEAEEEEKKVEGAGEEQAAKKKD	0.45 fold change
NIF3L1: human host interactor protein, Gene ID 60491, expressed from transfected ORF vector (protein) MLSSCVRPVPTTVRFVDSLICNSSRSFMDLKALLSSLNDFASLSFAESWDNVGLLVEPSPPHTVNTLFLTNDLTEEVMEEVLQKKADLILSYHPPIFRPMKRITWNTWKERLVIRALENRVGIYSPHTAYDAAPQGVNNWLAKGLGACTSRPIHPSKAPNYPTEGNHRVEFNVNYTQDLDKVMSAVKGIDGVSVTSFSARTGNEEQTRINLNCTQKALMQVVDFLSRNKQLYQKTEILSLEKPLLLHTGMGRLCTLDESVSLATMIDRIKRHLKLSHIRLALGVGRTLESQVKVVALCAGSGSSVLQGVEADLYLTGEMSHHDTLDAASQGINVILCEHSNTERGFLSDLRDMLDSHLENKINIILSETDRDPLQVV	0.39 fold change
RNPS1: human host interactor protein, Gene ID 10921, expressed from transfected ORF vector (protein) MDLSGVKKKSLLGVKENNKKSSTRAPSPTKRKDRSDEKSKDRSKDKGATKESSEKDRGRDKTRKRRSASSGSSSTRSRSSSTSSSGSSTSTGSSSGSSSSSASSRSGSSSTSRSSSSSSSSGSPSPSRRRHDNRRRSRSKSKPPKRDEKERKRRSPSPKPTKVHIGRLTRNVTKDHIMEIFSTYGKIKMIDMPVERMHPHLSKGYAYVEFENPDEAEKALKHMDGGQIDGQEITATAVLAPWPRPPPRRFSPPRRMLPPPPMWRRSPPRMRRRSRSPRRRSPVRRRSRSPGRRRHRSRSSSNSSR	11.12 fold change
